Two proteins from article PMC4631483, “The oxygenating constituent of 3,6-diketocamphane monooxygenase from the CAM plasmid of Pseudomonas putida: the first crystal structure of a type II Baeyer–Villiger monooxygenase” (Acta Crystallographica Section D: Biological Crystallography, 2015) can be followed below.

Data set [1] concerns the molecule itself. Nature of the data set: crystal structure; native apo enzyme; crystals from 50 mM PIPES pH 6.5, 50% ammonium sulfate, room temperature; P212121, two subunits in the asymmetric unit; 1.9 A.
Data set [2] deals with the molecule itself. Nature of the data set: crystal structure; overexpressed enzyme co-crystallised with 20 mM FMN, 5 mM NADH, 5 mM (-)-camphor; 100 mM HEPES pH 7.0, 20% PEG 3350, 18 C; P212121, one dimer in the asymmetric unit; 1.9 A.

B1: native 3,6-diketocamphane 1,6-monooxygenase, oxygenating component (enzyme, Pseudomonas putida NCIMB 10007, UniProt D7UER1 1-378, looked up)
chain: MAMETGLIFHPYMRPGRSARQTFDWGIKSAVQADSVGIDSMMISEHASQIWENIPNPELLIAAAALQTKNIKFAPMAHLLPHQHPAKLATMIGWLSQILEGRYFLGIGAGAYPQASYMHGIRNAGQSNTATGGEETKNLNDMVRESLFIMEKIWKREPFFHEGKYWDAGYPEELEGEEGDEQHKLADFSPWGGKAPEIAVTGFSYNSPSMRLAGERNFKPVSIFSGLDALKRHWEVYSEAAIEAGHTPDRSRHAVSHTVFCADTDKEAKRLVMEGPIGYCFERYLIPIWRRFGMMDGYAKDAGIDPVDADLEFLVDNVFLVGSPDTVTEKINALFEATGGWGTLQVEAHDYYDDPAPWFQSLELISKEVAPKILLPKR
notes: 3,6-diketocamphane 1,6-monooxygenase (3,6-DKMO; EC 1.14.13.-), oxygenating component, encoded on the CAM plasmid of Pseudomonas putida NCIMB 10007; monomer 42.3 kDa; residues up to 378 are numbered in the model (A1, A128-133, A176-180, A377-378, B1, B127-135, B176-179 not modelled); also called 3,6-DKMO; native 3,6-DKMO
What is called stoichiometry N is a count of units in the complex or per binding partner. As for B1, the “stoichiometry N” value in data set [1] came to 2.

B2: recombinant (overexpressed) 3,6-diketocamphane 1,6-monooxygenase, oxygenating component, N-terminally hexahistidine-tagged (enzyme, Pseudomonas putida)
chain: B1 chain
notes: 3,6-diketocamphane 1,6-monooxygenase (3,6-DKMO), oxygenating component, the 3,6-DKMO gene of the CAM plasmid of Pseudomonas putida in pET-28b; residues A126-135, A176-179, A377-378, B125-135, B176-179 not modelled in the FMN complex; Crystallised with 20 mM FMN, 5 mM NADH and 5 mM (-)-camphor; only FMN (occupancy 0.6) seen; also called overexpressed 3,6-DKMO; recombinant 3,6-DKMO; source: E. coli …
For the protein B2, the “stoichiometry N” value in data set [2] amounted to 2.
